Data as given in the domain aggregation screens of Martell et al. (2025).

Assay: soluble fraction after stress (log2 fold change); higher = more stays soluble; pooled small domains, quantitative proteomics
Conditions: stress: 75 degC
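Further: 20 min heating vs room temperature control held 20 min.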

Going from “HMENKLIELTLSLDKSERLDKILTQELSHTRSVIQQWLKSGFVSVNGEIVKANYKAKDGDHVTIQIE” to “HMENKTGEVTVREDSALTLRQGPGTNYEKVGQAYRGDRVDVLEEQNGWYKVKTYDGKEAWASSSYISIV”, the “soluble fraction (log2)” value rises from -0.594 to 0.861.

Going from “HMENMETSDIVARYSNMPGGIIEAFHEIVDRHGFLSQEAIIEAARGFGISVAEAYGVATFYSMFS” to “HMENMRLILASNLRRIREERRLSLNKVSELTGVSKSMLGQIERGESNPTLQTVWKIANGLRVSLTDLTEVP”, the “soluble fraction (log2)” value falls from -0.342 to -2.66.

Going from “HMENRILLSEDSLKHLAQDIPIDIIEKLSVLKDQIYHRYDDFNSIVQGLLGGENYLKYKDNILSFVEQ” to “HMENSMDTDWDVSGVDPSQYRLLFSTLGAIAGVKDVGLNPDGLKIIHTPEALPAIKQAFDANNLKLKMRTN”, the “soluble fraction (log2)” value falls from 0.424 to -0.0945.

Going from “HMENSPLTHREAEVMRLMSEGKSNRAISEHLVISEKTVKNHVSSILQKMSVDDRTQAVLQAIKNGWVD” to “HMENTGFKDKKGNYIFDGDIVKDILGNIMKVEFKHFKWQLIPLNKTAFNMPMVDWLDLETETLNAEIIGN”, the “soluble fraction (log2)” value falls from 0.281 to -2.07.

Going from “HMENTIESLLKAKGFNDIIVTVSDKQVDVVVSDKEIADNKRAQIEDVIKRKTGLEASAITITPA” to “HMENVLFVNVLSMTVRELAEMMKIPVNKIIQDSFSKGIMMNPNQRLEYDNFAELAKKYGITVKI”, the “soluble fraction (log2)” value falls from 0.127 to -1.24.

Going from “HMENVMLRNFAIQATEAGVIKLLEDQRTFVWGSNNKKFMTVPFDEHPYSAMAAFFKTDEGLEIYKSIEKKF” to “HMENYQIETFVKFIEESTGEDGVAFEDLFQNFTSRPAVITMFLALLEALRRNSIRIFQKEEFSQILIYPK”, the “soluble fraction (log2)” value rises from -1.97 to -0.0302.

Going from “HMENYTYKYATSANVNIREEPNTDSTILGKTLLNTEFQVVEDVDGWSKITTEAGYAYIKSEYLSDTE” to “HMEPDEQAVKALIAEIDKLSKEKLTLKHEKKLKELREIYDDFTEEEKKLVTNYDILVKMEKRMEVLKKQEG”, the “soluble fraction (log2)” value falls from 0.502 to 0.127.

Going from “HMEPDEYTVRQAFMKFDVGGEGRVPRDKLKALLETLGLELSAQQVRESEEQLDPEGTGFTSYGDFLMWWN” to “HMEPEVSNTYEKVLGMHHFSSTRSHQLHDLVRQANALELSLGEIESIAQSAKDGAQVISDIKHWMEPNRQ”, the “soluble fraction (log2)” value rises from -0.793 to 0.381.

Compared with “HMEPEWVINTDGSNLNEILAIDEVDSRKTFSNDLQEVYRTFGIEAARQILVQEIDAVIESSGA”, “HMEPFEQLLDRITSQTGKEPEEVVARMNELITERFDGNIRPEAALVIVAKRDNIQFMDLLDQLKQALL” is lower in “soluble fraction (log2)” value: 0.082 for the first, -0.427 for the second.

“HMEPIAFDNMHNRGIKGTNDWTQYEITLPFSAEAKKIFVAGLLVGKGKAWFDKFEVFLDGKNITDVAQI” and “HMEPPPSYSALLKQISSGKVKELQLVPARREVIVTYPDGRSATVAILANDQQILRTAEAAGTPLLVK” are within 0.2 log units of each other in “soluble fraction (log2)” value: 0.0509 for the first, 0.189 for the second.

Compared with “HMEPQLVKSFDVQTELTYDQFLSKYPESHTLGRLLVQPEPIPFEPYKNIPGITPEKLLALHAKHLEAR”, “HMEPQSRTAYRLIEAMIVTHELPPGSRISEASLSAKLGIGRTPIREALQRLSFEGTVKIVPRSGAFVSEI” is lower in “soluble fraction (log2)” value: 0.107 for the first, -2.78 for the second.

First: HMEPREALDGLISERGETYASISRLLGRNSAYIQQFIKRGSPARLDQSDIALLALHFDVPVEMLGGKE
Second: HMEPTIGTATVTSGSRLNMRSAKSTSASVVTRIPSGATVGVISYASDWSKVTYNGYTGYVSSPYISMNG
The “soluble fraction (log2)” value of the first is higher: -0.588 for the first, -1.19 for the second.

“HMEPVIELGDRTLPIEITRHRRARRLTLRLAADGSAVRITLPHWARSAEATAFAHARRDWLAAQLAK” and “HMEPVTETVYAMDTVNIRAAADQTSEKIGSVTVGTALTRTGTDGDWSIIDYNGTTGYVKSEFLSNTAPEV” are within 0.2 log units of each other in “soluble fraction (log2)” value: 0.181 for the first, 0.253 for the second.

“HMEQLIIQEELSGKRLDQLVSLLFPSLTRAHAQKLIKEGAVLVNEKPRKPAYAVMTGELLTVELPEPE” and “HMEQNHYEVLGVSRDAIPEEIRKAYFEYARKLHPDANPDPGAAEQFMRIQTAYDVLSNPDRRHEYDGLLPP” are within 0.2 log units of each other in “soluble fraction (log2)” value: -0.167 for the first, 0.00418 for the second.

Compared with “HMEQRREEFILLAKELLEKELRKQNLEVHENLKPDVLNDVAKRLGMVSMDDLLAAVGDGKITPGTVVSKIV”, “HMEQVLNVAVRRGELIMSSAAEQTVRIYSSAGSMVWQGKVSASDVTVELPSGVYVVNGKKVV” is lower in “soluble fraction (log2)” value: -0.0625 for the first, -1.25 for the second.

Going from “HMEQYFEDEELNDKFLEFLAMRKRVRKPVQTDRGMKMLLTSLHKLSGGDVGLMKQIIDQSLDNEWKKFVA” to “HMERDIATKHEVNRTVEAYSDIVKTLNLPSHKINLVEISFFNILKRSKPSPRENSILLGLAQKIKLHLEKK”, the “soluble fraction (log2)” value rises from -1.14 to -0.737.

Compared with “HMERLKYSQVVDLFKGEQVKSFVLDESNQLKMELQDGSTVSYKLRSFEQFYLDLSDTVKEQKESGIITDYD”, “HMERPPHELLSDREYQTMVMIASGRTLTQIAEEMSLSPKTVSVYRARLLEKMKLKNNAELTHYALKHKLV” is lower in “soluble fraction (log2)” value: -0.685 for the first, -1.89 for the second.

Going from “HMERPSLDQVLAHAKALGIAPARFVAYADGRWGTGWRLSPHGRARAWEELDRHRNDPLGYRDKLDVALQSG” to “HMESAQLIINVAGKVSNPGVYQLPQGSRVVDAIEAAGKQLKGVDISDINLARVLVDGEQILVGGV”, the “soluble fraction (log2)” value rises from -0.179 to 0.363.

Compared with “HMESAVDVFRSILKEKGVTEEEVRQVVAARGKYTLETPIDDYPNEFLYGYVIRYWDQIFDIIQQSREAK”, “HMESEAKLGVAFNGKTRFDMTFPADADNKTIEEAVLADERAQKYLEGFQVAKVIIVPKRMVNIVLK” is higher in “soluble fraction (log2)” value: -1.06 for the first, -0.189 for the second.

Going from “HMESEIYKKIEKSRLLELAFTKSQKGDLTGAYDLYYQAFTKYDVIADNQNRYFEDFISLIRRKQQQD” to “HMESGLPLPRFVSLGADEVNLRTGPGLRYPVAWVFVRKALPVEIVAEFEQWRRVRDFEGAEGWVHKAML”, the “soluble fraction (log2)” value rises from -2.54 to -0.163.

First: HMESGSSKINQDILETFTRGKKSLSISDISRLSGHHRHTVARYLDNLVSSGKLEMRQHGQKKKYYLSDIQP
Second: HMESILDDFPGLGAVRRAALLEHFGDIDRLRAASAVEITEVDGFGDVLARELHDFLHRPKPDA
The “soluble fraction (log2)” value of the first is higher: -0.314 for the first, -0.515 for the second.

Compared with “HMESKKKTYTVKSGDTLVSILKREGVPQELIFKDYLGLFLELNPQISDINKLRVGQEIVLPVPG”, “HMESLGEKIKNIRISNNLKQSELADILHISEKTISSWENNRTTPDLNMIYKISNYFKKSFYYLISDDYI” is lower in “soluble fraction (log2)” value: 0.05 for the first, -0.908 for the second.

“HMESMIGSLRGRLLELFGDGEVLIEVGGVGYRVIVTPTTTVRLGDVGGDVFVHVHHHIREADQTLYGF” and “HMESPSGGHRIALAFDQGTARAVDATYARLTGAGYEGRTKPWDAPWGQRYATVFDPDGNSVDLFAALE” are within 0.2 log units of each other in “soluble fraction (log2)” value: -0.48 for the first, -0.445 for the second.

Going from “HMESRDRVRQASAAGYRFMSTMAGHEPGFEEASRALFAGDQTAFEARITAWPVDVQTHLKKILAEAFTT” to “HMESRLQAAIALRKAGEHEQSREALKILADEPALRAQALLNIAWSFDNQGHERDAEGYYLAAIE”, the “soluble fraction (log2)” value rises from -1.17 to -0.381.

Compared with “HMESSKLQASIINYLERRPTQKFTAEELFKGLSLEKASVFNELVKELTSLERSHKVEITADDKFKIARPQ”, “HMESSSQLGFELARLVESGNDEEARALVQAKELSEADERKWLYHLGNLLHAAGRPLQASAIWREVGT” is higher in “soluble fraction (log2)” value: -0.331 for the first, 0.0141 for the second.

First: HMESVQWSVFPSAKYVTIISFDPTTSGGSATAKFKVSDEARSKGFRFRIEAAIGEGIMRSEMYVIEE
Second: HMESWNRARILEKIRELHAQGVALNNASMRRLGYRGMMEAAARPQNFGSWEAAVRAAGIDYDRV
The “soluble fraction (log2)” value of the first is higher: 0.215 for the first, -0.275 for the second.

Compared with “HMETAVMPDVMKLDSTTAIQALKDKGFATIETYEVKSDRPAGVVVRQSETADSVVALSKEILLGVSNGADY”, “HMETGFADTLRKFRKEADMTQEKLAEALGVTTGAVYKWENGRSTPEVRLLVEMADLFGTSVDALLDYKVR” is lower in “soluble fraction (log2)” value: ≥ 1.04 for the first, -1.33 for the second.

Going from “HMETGKLIKELRLKKGMTQEELADKTEVSSRTIQRIENGEVDPRAYTLQMIARALEVDYSLFME” to “HMETIELSAPGGVRLDKLIADGTELSRSAAVKLIEQGNVLVNGSPAGKKDIPAAGAAVEITLPEPQ”, the “soluble fraction (log2)” value rises from -0.408 to 0.0135.

Going from “HMETIGENIKTYRQKKGYTQEEVANRLHVTRQTISKWEKNYSIPDAEVLVKLADVLEVQTSQLLGV” to “HMETIGKRVRAARQELGLTMKQLHEQTGLSTGNISDIENDRNTPSVSSLVALGRALRRSLDWLLTGEE”, the “soluble fraction (log2)” value falls from -0.374 to -0.959.

“HMETISEIWRLIDGLDEIYRVPLTMYYRSNRSVREIAETLGLSARTVETRIYRARRMIREKWSN” and “HMETITDRLNRRSLELNVSQADIIRTTGAGRGTVSGWFSGANAPSAKYLESLAVALKTSTTWLLSGKD” are within 0.2 log units of each other in “soluble fraction (log2)” value: -2.06 for the first, -2.23 for the second.

First: HMETKERDEQFLEMIRQNEGIIFKVASFYVDKEHPIGDLYQEVVLNLWKGYPSFRGESKYSTWIYRIALNT
Second: HMETKPTELMLEVHELRIGMFVHLDLGWMDHPFPLNRFKISTNSQIEQIKGLRLKQVKVMTALSDPTALS
The “soluble fraction (log2)” value of the first is higher: 0.058 for the first, -2.29 for the second.

Compared with “HMETKQYIVEAQDEGTRLDVYLTKELGQSRSYVQSLVKEGHVQVNGKTGKSNLKLSSSSEILVTIPEVQ”, “HMETLKINTHLGTLNLKKRGKKGTWQINIYFKNIEGDNHYRQSTGTNQLELAKAKAMNMITTEYSNRLAGI” is lower in “soluble fraction (log2)” value: 0.067 for the first, -1.67 for the second.

Compared with “HMETMSYAEFNAIRIGKAKLMLADPSLKIWEISEAVGYTDTAHFARTFKKLEGMSANEYRNSL”, “HMETNFTGTRIATARKAKNMSQAQLAQQLFISPQAVGKWERGESIPDIVTVVKLADVLGVDLNYFSE” is higher in “soluble fraction (log2)” value: -0.862 for the first, -0.572 for the second.

Compared with “HMETPQIVARGDLITMVFRSGSLVLTAKGKALENGAMGDTIRVVNSDSNKTLAARVSASREVTVSE”, “HMETPSNTAGITHATSDGYIFKGESDIIGRNSFGFIVKHGSHNHIIPFDSLRGTKWEYLINKYT” is higher in “soluble fraction (log2)” value: -0.549 for the first, 0.000248 for the second.

“HMETSVDEVYKKIQAYIEAEDKHKPLSDQKLAEQLQSDGLKVSRRTVAKYREKLNIASSSKRKR” and “HMETTVPNVLNHNISTGEILLKENNLNFRIQYIPSNKDEAVGTIINSVPTSGEKVKFGTVVDLKVL” are within 0.2 log units of each other in “soluble fraction (log2)” value: 0.242 for the first, 0.146 for the second.

First: HMETVRHFRLDWSQAADRLDKVLASLMNDVSRARIQEWIRLGAVSVNGEILTDVRAKVAGGDAIDVTPQTA
Second: HMETVRLSVDAQGAYYWNEQRVDDSALPDLLREASGRKPQPDLHIRGDKAVRYERVAEAMAAAQRAGLKKI
The “soluble fraction (log2)” value of the first is lower: -0.722 for the first, 0.272 for the second.

“HMETVVTEVKTTDVVNIRTSDSETADKLSKAAIGDTFPLLEERGNGWSKVAYNGEEAFIKSDYLEPSKTE” and “HMETYEFNITDKEQTGMRVDKLLPELNSDWSRNQIQDWIKAGLVVANDKVVKSNYKVKLNDHIVVTEKEV” are within 0.2 log units of each other in “soluble fraction (log2)” value: 0.0124 for the first, 0.0567 for the second.

Compared with “HMETYPINVETTGTNVLLRTGPSTSSNIIKTITDKGTVFLSIERGINSDWQKVVTPDGTIGYMSGKY”, “HMEVAVQFIEFKIPENHAWIGKEIREITFPPESILVLIIRDGKKLVPNGKTVLKEGDSLILSGKASD” is lower in “soluble fraction (log2)” value: 0.00405 for the first, -1.43 for the second.
